{"source": "the RNAGym collection of RNA variant scans (doi:10.7554/elife.80360)", "parents": {"B1": {"name": "HDV Ribozyme (parent)", "chain": "GGCCGGCAUGGUCCCAGCCUCCUCGCUGGCGCCGGCUGGGCAACAUUCCGAGGGGACCGUCCCCUCGGUAAUGGCGAAUGGGACCCA"}}}
{"variants_of": "B1", "assay": "self-cleavage, relative activity (ratio to wild type); higher = more cleavage; co-transcriptional"}
{"variant": "G28C G68A", "self-cleavage": 0.0475}
{"variant": "C18G G59A", "self-cleavage": 0.128}
{"variant": "G35A C75A", "self-cleavage": 0.151}
{"variant": "C61A A78G", "self-cleavage": 0.678}
{"variant": "G10C G31A", "self-cleavage": 0.393}
{"variant": "C19U A87U", "self-cleavage": 0.149}
{"variant": "G17A C26U", "self-cleavage": 0.726}
{"variant": "G17A U60G", "self-cleavage": 0.712}
{"variant": "G54U C75G", "self-cleavage": 0.114}
{"variant": "C41A U60G", "self-cleavage": 0.522}
{"variant": "U27C A87G", "self-cleavage": 0.497}
{"variant": "G5C C85U", "self-cleavage": 0.277}
{"variant": "C13G C48U", "self-cleavage": 0.0739}
{"variant": "G11U C66U", "self-cleavage": 0.249}
{"variant": "G17C G52U", "self-cleavage": 0.363}
{"variant": "C36U A42C", "self-cleavage": 0.155}
{"variant": "C14U G28U", "self-cleavage": 0.285}
{"variant": "C4G A77C", "self-cleavage": 0}
{"variant": "A51C C64G", "self-cleavage": 1.09}
{"variant": "G28C U69G", "self-cleavage": 0.156}
{"variant": "G34U G50U", "self-cleavage": 0.191}
{"variant": "A70C A71C", "self-cleavage": 0.762}
{"variant": "G2A C49U", "self-cleavage": 0.237}
{"variant": "A70C G81C", "self-cleavage": 0.201}
{"variant": "C3U C33G", "self-cleavage": 0.0282}
{"variant": "C63G G80A", "self-cleavage": 0.366}
{"variant": "C64G U65A", "self-cleavage": 0.799}
{"variant": "G1C G59C", "self-cleavage": 0.365}
{"variant": "G39U C75U", "self-cleavage": 0.0923}
{"variant": "U60G G67U", "self-cleavage": 1.07}
{"variant": "G5U C57U", "self-cleavage": 0.604}
{"variant": "C49A G80C", "self-cleavage": 0.0665}
{"variant": "G11U U79C", "self-cleavage": 0.0652}
{"variant": "C4A C86G", "self-cleavage": 0.405}
{"variant": "G29U A71U", "self-cleavage": 0.0831}
{"variant": "C14G G80U", "self-cleavage": 0.261}
{"variant": "G35U A45C", "self-cleavage": 0.0475}
{"variant": "G5A C24G", "self-cleavage": 0}
{"variant": "G31C U37A", "self-cleavage": 0.115}
{"variant": "G31C C63G", "self-cleavage": 0.34}
{"variant": "G50U G73A", "self-cleavage": 0.634}
{"variant": "C7G A56U", "self-cleavage": 0.475}
{"variant": "C4G G52U", "self-cleavage": 0.215}
{"variant": "G52U C75G", "self-cleavage": 0.297}
{"variant": "G6U C41G", "self-cleavage": 0.237}
{"variant": "U37A C86A", "self-cleavage": 0.256}
{"variant": "C4G C26U", "self-cleavage": 0.684}
{"variant": "G25U G31A", "self-cleavage": 0.157}
{"variant": "C3U C48U", "self-cleavage": 0.804}
{"variant": "U9A U27C", "self-cleavage": 0.795}
{"variant": "G80U A83G", "self-cleavage": 0.253}
{"variant": "G67A A78U", "self-cleavage": 0.234}
{"variant": "G38C A83C", "self-cleavage": 0.107}
{"variant": "A70G C84U", "self-cleavage": 0.743}
{"variant": "A77U A87G", "self-cleavage": 0.591}
{"variant": "G2U G68U", "self-cleavage": 0.134}
{"variant": "U60C U79G", "self-cleavage": 0.554}
{"variant": "G6A C13G", "self-cleavage": 0}
{"variant": "U46A A83G", "self-cleavage": 0.378}
{"variant": "C62A U65C", "self-cleavage": 0.969}
{"variant": "G1C U20G", "self-cleavage": 0}
{"variant": "C30G C61G", "self-cleavage": 0.157}
{"variant": "G50C G68U", "self-cleavage": 0.597}
{"variant": "C36U G81U", "self-cleavage": 0.29}
{"variant": "C41G C44A", "self-cleavage": 0.192}
{"variant": "G1U C41G", "self-cleavage": 0.249}
{"variant": "G53C A77G", "self-cleavage": 0.88}
{"variant": "U9G U60G", "self-cleavage": 0.875}
{"variant": "C3G G25U", "self-cleavage": 0.0277}
{"variant": "G1C G40C", "self-cleavage": 0.0475}
{"variant": "C44U C66A", "self-cleavage": 0.677}
{"variant": "A16G C41A", "self-cleavage": 0.798}
{"variant": "G10C C24U", "self-cleavage": 0.646}
{"variant": "G81U", "self-cleavage": 0.365}
{"variant": "U9A C75U", "self-cleavage": 0.145}
{"variant": "C3U C57U", "self-cleavage": 0.794}
{"variant": "C4U A45C", "self-cleavage": 0.475}
{"variant": "G52U U65C", "self-cleavage": 0.658}
{"variant": "G34A G73A", "self-cleavage": 0.128}
{"variant": "G25C A87U", "self-cleavage": 0.0773}
{"variant": "G6U C30G", "self-cleavage": 0.0326}
{"variant": "G11U C26G", "self-cleavage": 0.527}
{"variant": "C15A A71U", "self-cleavage": 0.802}
{"variant": "U60G U69C", "self-cleavage": 1.09}
{"variant": "G5A G34C", "self-cleavage": 0.101}
{"variant": "A56C C58G", "self-cleavage": 1.26}
{"variant": "C57G A71C", "self-cleavage": 0.852}
{"variant": "A8G G81U", "self-cleavage": 0.256}
{"variant": "C22U C48U", "self-cleavage": 0.727}
{"variant": "G6A G35C", "self-cleavage": 0.119}
{"variant": "C3A G5A", "self-cleavage": 0.0332}
{"variant": "G1U U46G", "self-cleavage": 0.259}
{"variant": "C7G C32A", "self-cleavage": 0}
{"variant": "U20G U23C", "self-cleavage": 0}
{"variant": "C32G G80C", "self-cleavage": 0}
{"variant": "C75A G82U", "self-cleavage": 0.101}
{"variant": "G6A U69C", "self-cleavage": 0.631}
{"variant": "C13U G53C", "self-cleavage": 0.831}
{"variant": "G11A G55A", "self-cleavage": 0.499}
{"variant": "A45U C66A", "self-cleavage": 0.812}
{"variant": "C30G C32U", "self-cleavage": 0.113}
{"variant": "G38C G59C", "self-cleavage": 0.266}
{"variant": "C19G U37A", "self-cleavage": 0.0627}
{"variant": "U9A U46G", "self-cleavage": 1.08}
{"variant": "G35A G81A", "self-cleavage": 0.277}
{"variant": "C3G G34C", "self-cleavage": 0.192}
{"variant": "U27A G50A", "self-cleavage": 0.967}
{"variant": "G6A C85G", "self-cleavage": 0.608}
{"variant": "C4A C44G", "self-cleavage": 0.0665}
{"variant": "G2A C57U", "self-cleavage": 0.203}
{"variant": "C26A C30U", "self-cleavage": 0.68}
{"variant": "G40C C63G", "self-cleavage": 0.138}
{"variant": "C18U C63G", "self-cleavage": 0.607}
{"variant": "G39A G81C", "self-cleavage": 0.113}
{"variant": "U12G C36G", "self-cleavage": 0}
{"variant": "G10U C63G", "self-cleavage": 0.798}
{"variant": "G53A U79G", "self-cleavage": 0.554}
{"variant": "U9G C13A", "self-cleavage": 0.831}
{"variant": "C14U A16G", "self-cleavage": 1.21}
{"variant": "G28A G80A", "self-cleavage": 0.188}
{"variant": "A16C A71G", "self-cleavage": 0.7}
{"variant": "A42C A56C", "self-cleavage": 0.356}
{"variant": "A8C C15A", "self-cleavage": 0.199}
{"variant": "G28A C85U", "self-cleavage": 0.106}
{"variant": "G2C A8G", "self-cleavage": 0.0554}
{"variant": "U65A A78G", "self-cleavage": 0.831}
{"variant": "C13A C48U", "self-cleavage": 0.284}
{"variant": "G25A U79C", "self-cleavage": 0.0583}
{"variant": "U69C A87G", "self-cleavage": 1.1}
{"variant": "C44A G82A", "self-cleavage": 0.153}
{"variant": "G38A A45G", "self-cleavage": 0.155}
{"variant": "C14U G81A", "self-cleavage": 1.32}
{"variant": "C41U U79G", "self-cleavage": 0.369}
{"variant": "C4U G5C", "self-cleavage": 0.166}
{"variant": "C15U G39U", "self-cleavage": 0.322}
{"variant": "U65C C85U", "self-cleavage": 0.997}
{"variant": "U20C A70G", "self-cleavage": 0.107}
{"variant": "A42G C44U", "self-cleavage": 0.639}
{"variant": "U23G G31C", "self-cleavage": 0.178}
{"variant": "C15U A43U", "self-cleavage": 0.284}
{"variant": "C22G C66U", "self-cleavage": 0.0308}
{"variant": "C7U G52A", "self-cleavage": 0.68}
{"variant": "C14U A87U", "self-cleavage": 1.08}
{"variant": "C32G C64G", "self-cleavage": 0.0405}
{"variant": "G34U C57G", "self-cleavage": 0.178}
{"variant": "C63U C66G", "self-cleavage": 0.88}
{"variant": "C22U G82C", "self-cleavage": 0.198}
{"variant": "C30A A87G", "self-cleavage": 0.614}
{"variant": "A42U C49U", "self-cleavage": 0.502}
{"variant": "C14A A78U", "self-cleavage": 0.0791}
{"variant": "C30A C75A", "self-cleavage": 0.166}
{"variant": "G10A G29A", "self-cleavage": 0.0798}
{"variant": "C44G G80U", "self-cleavage": 0.0966}
{"variant": "C18A C33G", "self-cleavage": 0}
{"variant": "A56G U69G", "self-cleavage": 0.831}
{"variant": "C48G C64G", "self-cleavage": 0.266}
{"variant": "G59C G82U", "self-cleavage": 0.489}
{"variant": "C21U A43C", "self-cleavage": 0.0545}
{"variant": "U23C U37C", "self-cleavage": 1.15}
{"variant": "A42G G52U", "self-cleavage": 0.501}
{"variant": "U72A C84U", "self-cleavage": 0.578}
{"variant": "G2U U46A", "self-cleavage": 0.0187}
{"variant": "C3U G25U", "self-cleavage": 0.0175}
{"variant": "C63U A71G", "self-cleavage": 1.03}
{"variant": "G25U G34A", "self-cleavage": 0.0573}
{"variant": "C26U G54C", "self-cleavage": 1.03}
{"variant": "A51U U72G", "self-cleavage": 0.534}
